{
  "source": "patent US20040208880",
  "proteins": {"B1": {"name": "GST-Pak1 fusion protein, wild-type (amino acids 1-545) (protein)", "chain": "MSNNGLDIQDKPPAPPMRNTSTMIGVGSKDAGTLNHGSKPLPPNPEEKKKKDRFYRSILPGDKTNKKKEKERPEISLPSDFEHTIHVGFDAVTGEFTGMPEQWARLLQTSNITKSEQKKNPQAVLDVLEFYNSKKTSNSQKYMSFTDKSAEDYNSSNALNVKAVSETPAVPPVSEDEDDDDDDATPPPVIAPRPEHTKSVYTRSVIEPLPVTPTRDVATSPISPTENNTTPPDALTRNTEKQKKKPKMSDEEILEKLRSIVSVGDPKKKYTRFEKIGQGASGTVYTAMDVATGQEVAIKQMNLQQQPKKELIINEILVMRENKNPNIVNYLDSYLVGDELWVVMEYLAGGSLTDVVTETCMDEGQIAAVCRECLQALEFLHSNQVIHRDIKSDNILLGMDGSVKLTDFGFCAQITPEQSKRSTMVGTPYWMAPEVVTRKAYGPKVDIWSLGIMAIEMIEGEPPYLNENPLRALYLIATNGTPELQNPEKLSAIFRDFLNRCLDMDVEKRGSAKELLQHQFLKIAKPLSSLTPLIAAAKEATKNNH"}},
  "key": {"[1]": {"target": "T1, GST fusion containing the C-terminal 19 amino acids of DLC1/PIN", "T1 chain": "KHFIYFYLGQVAILLFKSG"}, "[2]": {"target": "GST-DLC1/PIN fusion protein (wild type)"}, "[3]": {"target": "GST-DLC1/PIN with deletion of Ser88"}},
  "data": [
    {"protein": "B1", "values": [
      {"measurement": "in vitro kinase assay with DLC1/PIN deletions", "setting": "[1]", "value": "GST fusion containing the C-terminal 19 amino acids of DLC1/PIN was efficiently phosphorylated by Pak1"},
      {"measurement": "in vitro kinase assay (phosphorylation of GST-DLC1/PIN by purified Pak1 enzyme)", "setting": "[2]", "value": "The Pak1 enzyme efficiently phosphorylated DLC1/PIN"},
      {"measurement": "in vitro kinase assay with DLC1/PIN deletions", "setting": "[3]", "value": "Deletion of Ser88 of DLC1/PIN completely abolished the ability of the Pak1 to phosphorylate DLC1/PIN"}
    ]}
  ]
}
